Data taken from patent US20180086816A1.

Target: prolactin-receptor on NB2-11 cells (rat lymphoma cells) (rat (NB2-11 rat lymphoma cells)) (UniProt P05710)
Experiment: cell-based or functional assay

Sequence of UniProt P05710 (P05710 20-610): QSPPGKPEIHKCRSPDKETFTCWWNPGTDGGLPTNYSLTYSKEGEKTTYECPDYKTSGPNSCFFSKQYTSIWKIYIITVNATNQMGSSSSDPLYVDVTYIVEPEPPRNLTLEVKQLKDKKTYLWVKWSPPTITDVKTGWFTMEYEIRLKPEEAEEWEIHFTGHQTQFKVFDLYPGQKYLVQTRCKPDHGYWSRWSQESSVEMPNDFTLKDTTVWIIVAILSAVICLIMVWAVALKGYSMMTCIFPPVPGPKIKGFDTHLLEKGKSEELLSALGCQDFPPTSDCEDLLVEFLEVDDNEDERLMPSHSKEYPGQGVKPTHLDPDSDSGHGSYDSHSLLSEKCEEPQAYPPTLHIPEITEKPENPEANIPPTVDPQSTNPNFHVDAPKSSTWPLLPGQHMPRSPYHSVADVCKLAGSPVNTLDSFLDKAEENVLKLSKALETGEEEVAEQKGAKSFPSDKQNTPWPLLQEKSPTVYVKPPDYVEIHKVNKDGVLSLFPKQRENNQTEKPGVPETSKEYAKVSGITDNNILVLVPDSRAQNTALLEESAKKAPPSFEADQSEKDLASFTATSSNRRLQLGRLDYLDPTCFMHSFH

NB2-11 cell proliferation, WST formazan absorbance (OD), dose response 0.039: 593
NB2-11 cell proliferation, WST formazan absorbance (OD), dose response 0.059: 684
NB2-11 cell proliferation, WST formazan absorbance (OD), dose response 0.088: 858
NB2-11 cell proliferation, WST formazan absorbance (OD), dose response 0.132: 1050
NB2-11 cell proliferation, WST formazan absorbance (OD), dose response 0.198: 1290
NB2-11 cell proliferation, WST formazan absorbance (OD), dose response 0.296: 1570
NB2-11 cell proliferation, WST formazan absorbance (OD), dose response 0.444: 1800
NB2-11 cell proliferation, WST formazan absorbance (OD), dose response 0.667: 1970
NB2-11 cell proliferation, WST formazan absorbance (OD), dose response 1: 2110
Substance: CTP modified hGH (hGH with one CTP at the N terminus and two CTP at the C terminus, expressed in HeLa cells) (from UniProt P0DN86 138-165; P01241 27-217; P0DN86 138-165; P0DN86 138-165)
